Data: patent US20170137467A1 (CHROMOTEK, published 2017)
Square brackets hold non-standard residues; d marks the D form. GABA = NCCCC(=O)O

How the values were obtained:
Experiment in all cases: positional peptide library pulldown on immobilised Nb, LC-MS of supernatant; signal ratio to control GFP-Nb (1 = not captured, near 0 = captured)
[1] = biological target: T1, BC2T D2S
T1 construct: positional scanning library member
T1 peptide: Ac-PSRKAAVSHWQQ-NH2
Procedure, shortened: (§1)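 Unbound peptide left in supernatant after 1 h pulldown in PBS/0.01% CHAPS measured by reversed-phase LC-MS (8–30% eluent B gradient, 20 min).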

[2] = biological target: T2, BC2T A5W
T2 construct: positional scanning library member
T2 peptide: Ac-PDRKWAVSHWQQ-NH2
Procedure, shortened: as §1

[3] = biological target: T3, BC2T V7P
T3 construct: positional scanning library member
T3 peptide: Ac-PDRKAAPSHWQQ-NH2
Procedure, shortened: as §1

[4] = biological target: T4, BC2T A6C(Abu) (SMILES …)
T4 construct: positional scanning library member
T4 peptide: Ac-PDRKA[GABA]VSHWQQ-NH2
Procedure, shortened: as §1

[5] = biological target: T5, BC2T P1E
T5 construct: positional scanning library member
T5 peptide: Ac-EDRKAAVSHWQQ-NH2
Procedure, shortened: as §1

[6] = biological target: T6, BC2T A5R
T6 construct: positional scanning library member
T6 peptide: Ac-PDRKRAVSHWQQ-NH2
Procedure, shortened: as §1

[7] = biological target: T7, BC2T P1R
T7 construct: positional scanning library member
T7 peptide: Ac-RDRKAAVSHWQQ-NH2
Procedure, shortened: as §1

[8] = biological target: T8, BC2T V7C(Abu) (also: Abu described as gamma-amino butyric acid)
T8 construct: positional scanning library member
T8 peptide: Ac-PDRKAA[GABA]SHWQQ-NH2
Procedure, shortened: as §1

[9] = biological target: T9, BC2T K4S
T9 construct: positional scanning library member
T9 peptide: Ac-PDRSAAVSHWQQ-NH2
Procedure, shortened: as §1

[10] = biological target: T10, BC2T V7N
T10 construct: positional scanning library member
T10 peptide: Ac-PDRKAANSHWQQ-NH2
Procedure, shortened: as §1

[11] = biological target: T11, BC2T A6D
T11 construct: positional scanning library member
T11 peptide: Ac-PDRKADVSHWQQ-NH2
Procedure, shortened: as §1

[12] = biological target: T12, BC2T A6P
T12 construct: positional scanning library member
T12 peptide: Ac-PDRKAPVSHWQQ-NH2
Procedure, shortened: as §1

[13] = biological target: T13, BC2T A6E
T13 construct: positional scanning library member
T13 peptide: Ac-PDRKAEVSHWQQ-NH2
Procedure, shortened: as §1

[14] = biological target: T14, BC2T V7H
T14 construct: positional scanning library member
T14 peptide: Ac-PDRKAAHSHWQQ-NH2
Procedure, shortened: as §1

[15] = biological target: T15, BC2T P1F
T15 construct: positional scanning library member
T15 peptide: Ac-FDRKAAVSHWQQ-NH2
Procedure, shortened: as §1

[16] = biological target: T16, BC2T D2E
T16 construct: positional scanning library member
T16 peptide: Ac-PERKAAVSHWQQ-NH2
Procedure, shortened: as §1

[17] = biological target: T17, BC2T D2P
T17 construct: positional scanning library member
T17 peptide: Ac-PPRKAAVSHWQQ-NH2
Procedure, shortened: as §1

[18] = biological target: T18, BC2T P1K
T18 construct: positional scanning library member
T18 peptide: Ac-KDRKAAVSHWQQ-NH2
Procedure, shortened: as §1

[19] = biological target: T19, BC2T P1S
T19 construct: positional scanning library member
T19 peptide: Ac-SDRKAAVSHWQQ-NH2
Procedure, shortened: as §1

[20] = biological target: T20, BC2T R3E
T20 construct: positional scanning library member
T20 peptide: Ac-PDEKAAVSHWQQ-NH2
Procedure, shortened: as §1

[21] = biological target: T21, BC2T P1T
T21 construct: positional scanning library member
T21 peptide: Ac-TDRKAAVSHWQQ-NH2
Procedure, shortened: as §1

B1: BC2-NbR106E (VHH)
VHH: QVQLVESGGGLVQPGGSLTLSCTASGFTLDHYDIGWFRQAPGKEREGVSCINNSDDDTYYADSVKGRFTIFMDNAKDTVYLQMNSLKPEDTAIYYCAEARGCKRGEYEYDFWGQGTQVTVSS
notes: headlock mutant of BC2-Nb; immobilised on beads in this assay
Which ratio [1] does the source give for B1 here?
The ratio was 0.2.

What about the ratio [2] of the same binder?
Its ratio is 0.

What about the ratio [3] of the same binder?
Its ratio is 0.9.

And the ratio [4]?
The ratio was 0.1.

And the ratio [5]?
Its ratio is 0.8.

And the ratio [6]?
Its ratio is 0.

What about the ratio [7] of the same binder?
The ratio was 0.2.

And the ratio [8]?
Its ratio is 0.3.

And the ratio [9]?
The ratio was 0.6.

And the ratio [10]?
Its ratio is 0.4.

And the ratio [11]?
The ratio was 1.

What about the ratio [12] of the same binder?
Its ratio is 1.1.

What about the ratio [13] of the same binder?
Its ratio is 1.1.

And the ratio [14]?
The ratio was 0.3.

And the ratio [15]?
The ratio was 0.3.

What about the ratio [16] of the same binder?
Its ratio is 0.2.

What about the ratio [17] of the same binder?
Its ratio is 0.8.

What about the ratio [18] of the same binder?
The ratio was 0.3.

And the ratio [19]?
Its ratio is 0.4.

What about the ratio [20] of the same binder?
Its ratio is 1.

What about the ratio [21] of the same binder?
The ratio was 0.6.
